# Data: paper PMC7375649, “Varicella zoster virus encodes a viral decoy RHIM to inhibit cell death” (PLoS Pathogens, 2020)
# Biological target: the molecule itself
# Test: single molecule fluorescence confocal spectroscopy (two-colour coincidence); proteins alone or one mCherry-tagged and one YPet-tagged protein mixed, diluted out of 8 M urea to 0.35-0.7 uM in 25 mM NaH2PO4, 150 mM NaCl, 0.5 mM DTT, pH 7.4; room temperature; 488 and 561 nm lasers
row,Protein,binding result
1,"YPet-RIPK3_(387-518) (domain or fragment, human RIPK3, RHIM-containing region, residues 387-518; source: E. coli BL21(DE3) pLysS, purified from inclusion bodies under denaturing conditions (Ni-NTA)) TSSDSMAQPPQTPETSTFRNQMPSPTSTGTPSPGPRGNQGAERQGMNWSCRTPEPNPVTGRPLVNIYNCSGVQVGDNNYLTMQQTTALPTWGLAPSGKGRGLQHPPPVGSQEGPKDPEAWSRPQGWYNHSGK",binds
2,"YPet-ZBP1_(170-355) (domain or fragment, human ZBP1, RHIM-containing region, residues 170-355; also called YPet-ZBP1 RHIM; source: E. coli BL21(DE3) pLysS, purified from inclusion bodies under denaturing conditions (Ni-NTA)) SGRRAKSASIIYQHNPINMICQNGPNSWISIANSEAIQIGHGNIITRQTVSREDGSAGPRHLPSMAPGDSSTWGTLVDPWGPQDIHMEQSILRRVQLGHSNEMRLHGVPSEGPAHIPPGSPPVSATAAGPEASFEARIPSPGTHPEGEAAQRIHMKSCFLEDATIGNSNKMSISPGVAGPGGVAGS",binds
